This note sets out measurements from US20050096290, “5'-and 3'-capped aptamers and uses therefor” (published 2005).

Series [1] deals with T1, VEGF165 (vascular endothelial growth factor A, 165 isoform) (Homo sapiens, UniProt P15692-4 P15692-4:27-191). Briefly: competition; competitive ELISA-like plate assay against biotinylated DNA competitor on immobilized VEGF165, chemiluminescence readout. The note with it: tags: recombinant human VEGF165, immobilized on 96-well plate; chain copies: 2 inferred. The protocol: (§1) The ability of anti-VEGF aptamers to bind to human vascular endothelial growth factor (VEGF) was determined using a competitive binding ELISA-like assay. In this assay, recombinant VEGF₁₆₅ is bound to the wells of a 96-well plate (Quadra 96 Plus). Following blocking of nonspecific reactive sites on the plate, a matrix of the test aptamer and a biotinylated competitor, the DNA oligonucleotide shown below, were added.
T1 sequence (P15692 other isoform, or with tags, fused parts or gaps): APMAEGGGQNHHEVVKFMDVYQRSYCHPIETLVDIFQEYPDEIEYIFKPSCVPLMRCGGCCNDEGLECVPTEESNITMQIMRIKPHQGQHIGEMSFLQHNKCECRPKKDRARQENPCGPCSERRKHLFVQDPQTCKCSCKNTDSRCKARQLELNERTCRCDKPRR
(§2) “X” represent a biotin moiety in the above representation. Both the biotinylated competitor and the test aptamer compete for binding sites on the immobilized VEGF. Following the removal of the unbound biotinylated competitor and unbound test aptamer, the amount of biotinylated competitor remaining is detected using a chemiluminescence reaction. The entire plate was immediately read on a luminometer (Victor 2). The amount of bound biotinylated competitor is inversely related to the amount of bound test aptamer.
A general note: In an ELISA, binding on a coated surface is turned into a signal by an enzyme label.

Series [2] has as its target T1, VEGF165 (vascular endothelial growth …). Briefly: competition; biotinylated competitor binds immobilized VEGF165 and is displaced by test aptamer; printed as SEQ ID NO:1 in text but matches listing SEQ 11. The following applies: tags: recombinant human VEGF165, immobilized on 96-well plate; chain copies: 2 inferred; label: two 5' biotin moieties (XX). The protocol: as §1, §2

B1: Oligonucleotide 1 (5'-5' and 3'-3' inverted dT capped anti-VEGF aptamer) (ssRNA)
RNA: CGGAAUCAGUGAAUGCUUAUACAUCCG
modifications: 2'-F on all C and U; 2'-OMe on all G and on A except A4 and A5 (ribo); 5'-5' inverted dT cap; 3'-3' inverted dT cap
What is called IC50 is the concentration that inhibits the measured activity by half. In the case of B1, the IC50 in series [1] was found to be 3.28 nM.

B2: biotinylated DNA competitor oligonucleotide (ssDNA)
DNA: CCCGTCTTCCAGACAAGAGTGCAGGG
As for B2, the binding result in series [2] is recorded as “binds”.
